Values quoted from earlier work, collected in article PMC3496038.

Assays:
[1] = target: GluA1 NTD (Rattus norvegicus) (UniProt P19490); assay: analytical ultracentrifugation
[2] = target: GluA3 NTD (Rattus norvegicus) (UniProt P19492); assay: analytical ultracentrifugation

| Substance | Kd [1] | Kd [2] |
| --- | --- | --- |
| GluA1 NTD (from UniProt P19490) | 100 nM |  |
| GluA3 NTD (from UniProt P19492) |  | 1000 nM |
